Results as given in patent US20230087128A1 (KEROS THERAPEUTICS, published 2023).
Changes are numbered by the printed parent chain.

B1: ActRIIB/A variant (SEQ ID NO: 2)-Fc (Fc fusion, not shown: a dimerising Fc or GST)
chain: GRGEAETRECIFYNANWEKDRTNQSGLEPCYGDQDKRRHCFASWKNSSGTIELVKQGCWLDDINCYDRQECVAKKDSPEVYFCCCEGNFCNERFTHLPEAGGPEVTYEPPPTAPT
notes: Engineered variant of the human ActRIIB extracellular portion; expressed transiently in HEK293 and Protein A purified (SPR); conditioned media in the reporter assay; also called ActRIIB/A-Fc
B2: ActRIIB 2.05 variant (SEQ ID NO: 8)-Fc (Fc fusion, not shown: a dimerising Fc or GST)
chain: B1 chain with F12Y, K19L, D20E, P29R, Q34K, R38L, F41Y, K45R, Q56K, I63F
notes: Engineered variant of the human ActRIIB extracellular portion
B3: ActRIIB 2.06 variant (SEQ ID NO: 9)-Fc (Fc fusion, not shown: a dimerising Fc or GST)
chain: B1 chain with F12Y, K19L, D20E, P29R, Y31E, D33E, R38L, I63F
notes: Engineered variant of the human ActRIIB extracellular portion; recombinant protein; also called ActRIIB variant 2.06-hFc
B4: ActRIIB 2.09 variant (SEQ ID NO: 12)-Fc (Fc fusion, not shown: a dimerising Fc or GST)
chain: GRGEAETRECLYYNANWELERTNQSGVERCEGEKDKRLHCYASWRNSSGSLEIVKKGCWLDDFNCYDRTDCVATEENPQVYFCCCEGNMCNERFTHLPEAGGPEVTYEPPPTAPT
notes: Engineered variant of the human ActRIIB extracellular portion; also called ActRIIB variant 2.09-hFc
B5: ActRIIB 2.10 variant (SEQ ID NO: 13)-Fc (Fc fusion, not shown: a dimerising Fc or GST)
chain: B4 chain with T69D, D70T
notes: Engineered variant of the human ActRIIB extracellular portion; also called ActRIIB variant 2.10-hFc
B6: ActRIIB 2.11 variant (SEQ ID NO: 14)-Fc (Fc fusion, not shown: a dimerising Fc or GST)
chain: B4 chain with E75K
notes: Engineered variant of the human ActRIIB extracellular portion; recombinant protein
B7: ActRIIB 2.12 variant (SEQ ID NO: 15)-Fc (Fc fusion, not shown: a dimerising Fc or GST)
chain: B4 chain with T69D, D70T, E75K
notes: as for B6
B8: ActRIIBΔ9 variant (SEQ ID NO: 3)-Fc (Fc fusion, not shown: a dimerising Fc or GST)
chain: GRGEAETRECIYYNANWELDRTNQSGLERCEGEQDKRLHCYASWRNSSGTIELVKKGCWLDDINCYDRQECVATKENPQVYFCCCEGNFCNERFTHLPEAGGPEVTYEPPPTAPT
notes: as for B2
B9: ActRIIB (SEQ ID NO: 17)-Fc (Fc fusion, not shown: a dimerising Fc or GST)
chain: B8 chain with D20E, I63F, K75E
notes: Recombinant wild-type extracellular ActRIIB-Fc; also called ActRIIB-Fc
B10: BMP-9 (ligand, UniProt Q9UK05 320-429, looked up)
chain: SAGAGSHCQKTSLRVNFEDIGWDSWIIAPKEYEAYECKGGCFFPLADDVTPTKHAIVQTLVHLKFPTKVGKACCVPTKLSPISVLYKDDMGVPTLKYHYEGMSVAECGCR
notes: also called bone morphogenetic protein 9
B11: growth differentiation factor 11 (GDF11) (ligand, UniProt O95390 299-407, looked up)
chain: NLGLDCDEHSSESRCCRYPLTVDFEAFGWDWIIAPKRYKANYCSGQCEYMFMQKYPHTHLVQQANPRGSAGPCCTPTKMSPINMLYFNDKQQIIYGKIPGMVVDRCGCS

Target: T1, BMP-9, Q9UK05
T1 chain: B10 chain
Experiment: SPR (Biacore 3000), Fc fusion captured, ligand in solution
Conditions: remark: other sources report otherwise

Question: With B1 as the binder, how does the Kd read?
Answer: The Kd was 88000 pM.

What follows are binders tested against B10 in the same assay as above. Conditions: not given.
Text: (§1) The GE Biacore 3000 was used to measure the kinetics of the interactions between the ActRIIB-Fc variants and the ligands Activin A, Activin B, growth differentiation factor 11 (GDF11), and BMP-9. […] All other ActRIIB-Fc variants were expressed by transient expression in HEK293 cells and purified from the conditioned media using Protein-A Sepharose chromatography. Flow cells 1-4 were immobilized with anti-human/anti-mouse capture antibodies from GE using the amine coupling kit. The ActRII-Fc proteins were then captured on the chip in flow cells 2-4, with flow cell 1 being left empty as a reference cell to measure and subtract any nonspecific binding. HBS-EP+ buffer from GE Healthcare™ was used as a running buffer. Each ligand was run in a duplicate concentration series at 40 μl/min to avoid mass transport effects. All data was collected on a CM-5 chip except for GDF-11, which used CM-4. The data was analyzed using Scrubber2 by BioLogic™ Software to calculate the KD of each interaction (Table 4).

Question: Does B2 bind?
Answer: Result: no binding

Question: How did the Kd turn out when B3 was run?
Answer: Its Kd is 300 pM.

Question: Which Kd does the source give for B4 here?
Answer: The Kd was 440 pM.

Question: How did the Kd turn out when B5 was run?
Answer: Its Kd is 1700 pM.

Question: B6 was tested. Which Kd did it give?
Answer: The Kd was 2700 pM.

Question: With B7 as the binder, how does the Kd read?
Answer: Its Kd is 31000 pM.

Question: B8 was tested. Which Kd did it give?
Answer: Its Kd is 28000 pM.

The binders below were run against T2, Activin A (UniProt P08476 311-426) in the same assay as above. Conditions: not given.
T2 sequence (looked up): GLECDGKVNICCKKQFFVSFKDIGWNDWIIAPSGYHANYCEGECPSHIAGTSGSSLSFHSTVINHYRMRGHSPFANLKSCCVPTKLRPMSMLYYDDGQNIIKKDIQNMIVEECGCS
Text: as §1

Question: Does B1 bind?
Answer: Result: no binding

Question: B9 was tested. Which Kd did it give?
Answer: Its Kd is 63 pM.

Question: Which Kd does the source give for B3 here?
Answer: The Kd was 53 pM.

Question: For B4, which Kd is on record?
Answer: The Kd was 100 pM.

Question: B5 was tested. Which Kd did it give?
Answer: Its Kd is 450 pM.

Question: For B6, which Kd is on record?
Answer: Its Kd is 780 pM.

Question: How did the Kd turn out when B7 was run?
Answer: Its Kd is 140 pM.

Question: How did the Kd turn out when B8 was run?
Answer: The Kd was 390000 pM.

These binders were tested against B11 in the same assay as above. Conditions: not given.
Text: as §1

Question: Does B1 bind?
Answer: Result: no binding

Question: B3 was tested. Which Kd did it give?
Answer: Its Kd is 27 pM.

Question: For B6, which Kd is on record?
Answer: The Kd was 240 pM.

Question: How did the Kd turn out when B7 was run?
Answer: The Kd was 130 pM.

Question: How did the Kd turn out when B8 was run?
Answer: The Kd was 530000 pM.

What follows are binders tested against T3, Activin B (UniProt P09529 293-407) in the same assay as above. Conditions: not given.
T3 sequence (looked up): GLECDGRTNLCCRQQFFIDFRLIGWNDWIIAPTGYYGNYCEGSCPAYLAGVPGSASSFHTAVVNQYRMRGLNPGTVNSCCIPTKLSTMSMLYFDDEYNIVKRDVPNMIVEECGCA
Text: as §1

Question: Does B1 bind?
Answer: Result: no binding

Question: How did the Kd turn out when B9 was run?
Answer: Its Kd is 23 pM.

Question: For B3, which Kd is on record?
Answer: Its Kd is 100 pM.

Question: With B4 as the binder, how does the Kd read?
Answer: The Kd was 160 pM.

Question: With B5 as the binder, how does the Kd read?
Answer: The Kd was 280 pM.

Question: With B6 as the binder, how does the Kd read?
Answer: The Kd was 370 pM.

Question: Which Kd does the source give for B7 here?
Answer: Its Kd is 160 pM.

Question: Which Kd does the source give for B8 here?
Answer: The Kd was 400000 pM.

These binders were tested against B9 in the same assay as above. Conditions: not given.
Text: as §1

Question: Which Kd does the source give for B10 here?
Answer: The Kd was 280 pM.

Question: How did the Kd turn out when B11 was run?
Answer: Its Kd is 120 pM.
